In patent EP4484444A1:

Target: T1, recombinant human PCPE-2 (procollagen C-proteinase enhancer 2) fused to a 6 Histidine-tag at the N-terminus (human) (UniProt Q9UKZ9)
T1 sequence: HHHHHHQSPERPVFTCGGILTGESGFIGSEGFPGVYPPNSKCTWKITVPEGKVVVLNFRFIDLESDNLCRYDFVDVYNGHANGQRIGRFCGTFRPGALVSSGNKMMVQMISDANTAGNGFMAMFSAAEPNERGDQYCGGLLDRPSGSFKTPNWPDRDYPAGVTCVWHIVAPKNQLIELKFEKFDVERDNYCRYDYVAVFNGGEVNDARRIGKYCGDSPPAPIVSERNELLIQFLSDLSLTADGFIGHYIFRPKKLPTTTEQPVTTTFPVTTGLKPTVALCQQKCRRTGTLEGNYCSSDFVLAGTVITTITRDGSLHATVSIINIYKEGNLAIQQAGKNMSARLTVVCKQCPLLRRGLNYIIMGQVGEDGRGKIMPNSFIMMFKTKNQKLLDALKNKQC
Assay: SPR competition: BMP-1 (200 nM) co-injected with PCPE-2 (200 nM) over immobilized C-propeptide III carrying PCPE-2

B1: human BMP-1 (bone morphogenetic protein-1) fused to a C-terminal Flag tag (enzyme, UniProt P13497-2 121-730, looked up, not shown: small tags and cut ends)
chain: AATSRPERVWPDGVIPFVIGGNFTGSQRAVFRQAMRHWEKHTCVTFLERTDEDSYIVFTYRPCGCCSYVGRRGGGPQAISIGKNCDKFGIVVHELGHVVGFWHEHTRPDRDRHVSIVRENIQPGQEYNFLKMEPQEVESLGETYDFDSIMHYARNTFSRGIFLDTIVPKYEVNGVKPPIGQRTRLSKGDIAQARKLYKCPACGETLQDSTGNFSSPEYPNGYSAHMHCVWRISVTPGEKIILNFTSLDLYRSRLCWYDYVEVRDGFWRKAPLRGRFCGSKLPEPIVSTDSRLWVEFRSSSNWVGKGFFAVYEAICGGDVKKDYGHIQSPNYPDDYRPSKVCIWRIQVSEGFHVGLTFQSFEIERHDSCAYDYLEVRDGHSESSTLIGRYCGYEKPDDIKSTSSRLWLKFVSDGSINKAGFAVNFFKEVDECSRPNRGGCEQRCLNTLGSYKCSCDPGYELAPDKRRCEAACGGFLTKLNGSITSPGWPKEYPPNKNCIWQLVAPTQYRISLQFDFFETEGNDVCKYDFVEVRSGLTADSKLHGKFCGSEKPEVITSQYNNMRVEFKSDNTVSKKGFKAHFFSEKRPALQPPRGRPHQLKFRVQKRNRTPQ
  % inhibition: 77%
